Results published in article PMC4048220, “Exploring the Electron Transfer Pathway in the Oxidation of Avermectin by CYP107Z13 in Streptomyces ahygroscopicus ZB01” (PLoS ONE, 2014).

Assays:
[1] = substrate: NC(=O)C1=CN([C@@H]2O[C@H](COP(=O)(O)OP(=O)(O)OC[C@H]3O[C@@H](n4cnc5c(N)ncnc54)[C@H](O)[C@@H]3O)[C@@H](O)[C@H]2O)C=CC1; assay: spectrophotometric DCPIP reduction; type: biochemical, Streptomyces ahygroscopicus; settings: DCPIP as electron acceptor
[2] = substrate: NC(=O)C1=CN([C@@H]2O[C@H](COP(=O)(O)OP(=O)(O)OC[C@H]3O[C@@H](n4cnc5c(N)ncnc54)[C@H](O)[C@@H]3O)[C@@H](O)[C@H]2O)C=CC1; assay: spectrophotometric DCPIP reduction; type: biochemical, Streptomyces hygroscopicus; settings: DCPIP as electron acceptor

B1: FdR28 (Streptomyces ahygroscopicus; V1M) (protein)
chain: MVVGASLAGLRAAEALRGEGFTGSLTMIGDELGEPYDRPPLSKQVLTGWVPADNTKLPRRRDVDAEWLLGVPASGLDLANNHVRLADGRQVPFDRVPISTGVRARPWFVESEAALDGVFVVRTREHAEALQRALAAGPSRVLVIGAGFTGSEIASVCRERDIPVTVAELAPAPLVGALGAMIGDVAADVQRAHGVDLRCGVKVTQLEGDAQGRLRRAHFDDGTTVDADVAVVALGGIRNTDWLRDSGLAAGVWGIACDTGCRALDLNGLVTDDVFVAGDVARCPNPIYEYRLISLEHWANAVEQAEVAAHNMVSGQADRWPHLTLPLFWSIQFGINIKSVGVPTFADEVVVTQGSVPDHRFVAAYGYRGRVTAAVSFNNAKWLDHHRRLIETAAPFPPLCPTPDQPADTKPVPVDFPGPALLAQGATVVVTGHDPSERRVTAAYQHR
notes: FAD flavoprotein; pRSET-b (vector His tag), E. coli BL21(DE3), Ni-Sepharose purified; GTG start changed to ATG; cloning primers encode N-terminal MVVGAS, C-terminal TAAYQHR
Protein B1 has a Km [1] of 25.4 µM and a kcat [1] of 386 min⁻¹.

B2: FdR18 (Streptomyces hygroscopicus) (protein)
chain: MVDAHQTFVIVGGGLAGAKAAETLRAEGFTGRVILICDERDHPYERPPLSKGYLLGKEERDSVFVHEPAFYAQARIELHLGQPAVHLDPAARTVRLGDGTLIAYDKLLLATGAEPRRLDVPGTGLAGVHHLRRLAHAERLRGVLASLGRENGHLVIAGAGWIGLEVAAAARSYGAEVTIIEPEPTPLHGILGPELGALFTDLHAEHGVRFHFGARLTEIVGQDGMVVSVRTDDGEEHPAHDVLAAIGAAPRTALAEQAGLDVVDRADGGGIAVDAALRTSDPFIHAAGDVAAADHPLLDTRLRVEHWANALNGGPAAARAMLGQDISYDRVPYFFSDQYDLGMEYSGYAPPGSYDQVVCRGDVGKREFIAFWLREGRVLAGMNVNVWDVAGDVQQLIRSGTPLDPEKLTDPTVPLTSLLP
notes: FAD flavoprotein; pRSET-b (vector His tag), E. coli BL21(DE3), Ni-Sepharose purified; GTG start changed to ATG; cloning primers encode N-terminal MVDAHQT, C-terminal LTSLLP
For B2, the Km [2] was 64 µM and the kcat [2] was 121 min⁻¹.
